Ends that are not written are not given here.
T1: pWT PDZ2 (pseudo wild type SAP97 PDZ2, I342W/C378A) (Homo sapiens, UniProt Q12959, C378A/I342W)
T1 construct: constituting SAP97 residues 311–407 and the mutations I342W and C372A; His-tagged lipoyl protein domain (N, cleaved yes); made in house
T1 sequence (Q12959 311-407 I342W/C378A): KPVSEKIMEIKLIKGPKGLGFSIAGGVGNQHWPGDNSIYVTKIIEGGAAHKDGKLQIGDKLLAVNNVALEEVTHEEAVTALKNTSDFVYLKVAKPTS

T2: pWT PDZ2 K392M (Homo sapiens, UniProt Q12959, C378A/I342W/K392M)
T2 construct: constituting SAP97 residues 311–407 and the mutations I342W and C372A; His-tagged lipoyl protein domain (N, cleaved yes); made in house
T2 sequence (Q12959 311-407 I342W/C378A/K392M): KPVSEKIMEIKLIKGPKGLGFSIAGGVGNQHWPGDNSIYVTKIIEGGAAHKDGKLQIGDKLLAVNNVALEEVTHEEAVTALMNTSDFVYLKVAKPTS

T3: PDZØ9 (pWT SAP97 PDZ2 L391F/K392M) (Homo sapiens, UniProt Q12959, C378A/I342W/K392M/L391F)
T3 construct: constituting SAP97 residues 311–407 and the mutations I342W and C372A; His-tagged lipoyl protein domain (N, cleaved yes); made in house
T3 sequence (Q12959 311-407 I342W/C378A/L391F/K392M): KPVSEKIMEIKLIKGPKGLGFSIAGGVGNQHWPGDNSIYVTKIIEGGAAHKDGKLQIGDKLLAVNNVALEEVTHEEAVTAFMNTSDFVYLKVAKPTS

T4: pWT PDZ2 L391F (Homo sapiens, UniProt Q12959, C378A/I342W/L391F)
T4 construct: constituting SAP97 residues 311–407 and the mutations I342W and C372A; His-tagged lipoyl protein domain (N, cleaved yes); made in house
T4 sequence (Q12959 311-407 I342W/C378A/L391F): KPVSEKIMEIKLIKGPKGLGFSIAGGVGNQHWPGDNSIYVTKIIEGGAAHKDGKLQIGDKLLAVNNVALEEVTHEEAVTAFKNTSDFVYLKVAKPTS


How the values were obtained:
[1] = target: T1, pWT PDZ2 (pseudo wild type SAP97 PDZ2, I342W/C378A); experiment: Stopped-flow binding kinetics, peptide with pWT PDZ2; conditions: for Kd: Kd = koff/kon, ± propagated standard error; for Kd / koff: pH 7.5, 10 °C; for kon: Trp342 fluorescence, 1 µM PDZ, peptide 2–40 µM, N-acetylated peptide, 50 mM potassium phosphate pH 7.5, 10 °C; for kon / koff: value ± standard error; for koff: displacement of pre-formed complex (1 µM PDZ, 2 µM peptide) with 100 and 150 µM dansylated RRRETQV peptide
Procedure: (§1) The basic experimental parameters determined were the rate constants of association (kon) and dissociation (koff) for each peptide and for all PDZ variants, respectively, in a procedure described in Fig. 2 for the interaction between PDZØ9 and the EKKHTLL peptide as an example.
(§2) Figure 2 Determination of the two rate constants kon and koff for PDZØ9 binding to the EKKHTLL peptide. kon and koff were determined in separate experiments using stopped-flow spectroscopy and monitoring the change in Trp fluorescence upon binding. (a) The experimental trace was obtained by averaging of three individual experiments in which 11 μM of the EKKHTLL peptide was mixed with 1 μM PDZØ9. The trace was fitted to a single exponential function to obtain the observed rate constant, kobs. […] (c) In a displacement reaction a pre-formed complex between PDZØ9 (1 μM) and the EKKHTLL peptide (2 μM) was mixed with a large excess of dansyl-labeled peptide corresponding to the C-terminal […] of HPV18 E6 (150 μM). […] At high concentrations of dansylated peptide, none of the dissociated EKKHTLL will re-bind, and fitting to a single exponential function returns a kobs value which is equal to the dissociation rate constant, koff, of the pre-formed complex.
(§3) All of the stopped-flow experiments conducted in order to measure the rate constants for the peptide/PDZ interactions, were performed on an SX-20 MV stopped-flow spectrometer (Applied Photophysics Leatherhead, UK) at 10 °C in 50 mM potassium phosphate buffer, pH 7.5. Fluorescence was monitored using the change in emission of Trp342 in the PDZ variants (excitation at 280 nm; emission at 330 ± 30 nm). The peptides were N-acetylated (Ontores Biotechnologies) and the concentration of the respective stock solution was determined with either absorbance, quantitative amino acid analysis or direct detect (EMD Millipore). The rate constants of association, kon, and dissociation, koff, were determined in separate experiments. […] For each PDZ variant the kobs values were plotted versus the concentration of peptide and fitted to the general equation for a reversible bimolecular interaction[38][39] from which kon was derived. The koff was measured in a displacement experiment in which a pre-formed complex of PDZ variant (1 μM) and peptide (2 μM) was mixed with high concentrations of a dansylated RRRETQV-peptide (100, and 150 μM), which competes with the unlabelled peptide for binding to the PDZ. […] The kobs value at high peptide concentration is equal to the overall koff value, as described previously.

pWT PDZ2 K392M = target: T2, pWT PDZ2 K392M; experiment: Stopped-flow binding kinetics, peptide with pWT PDZ2 K392M; conditions: for Kd: Kd = koff/kon, ± propagated standard error; for Kd / koff: pH 7.5, 10 °C; for kon: Trp342 fluorescence, 1 µM PDZ, peptide 2–40 µM, N-acetylated peptide, 50 mM potassium phosphate pH 7.5, 10 °C, value ± standard error (EKKHTLL: mean of two experiments); for koff: displacement of pre-formed complex (1 µM PDZ, 2 µM peptide) with 100 and 150 µM dansylated RRRETQV peptide, value ± standard error
Procedure: as §1, §2, §3

[2] = target: T3, PDZØ9 (pWT SAP97 PDZ2 L391F/K392M); experiment: Stopped-flow binding kinetics, peptide with PDZØ9; conditions: stopped-flow; for Kd: Kd = koff/kon, ± propagated standard error; for Kd / koff: pH 7.5, 10 °C; for koff: displacement of pre-formed complex (1 µM PDZ, 2 µM peptide) with 100 and 150 µM dansylated RRRETQV peptide; for koff / kon: value ± standard error; for kon: Trp342 fluorescence, 1 µM PDZ, peptide 2–40 µM, N-acetylated peptide, 50 mM potassium phosphate pH 7.5, 10 °C
Procedure: as §1, §2, §3

pWT PDZ2 L391F = target: T4, pWT PDZ2 L391F; experiment: Stopped-flow binding kinetics, peptide with pWT PDZ2 L391F; conditions: for Kd: Kd = koff/kon, ± propagated standard error; for Kd / koff: pH 7.5, 10 °C; for kon: Trp342 fluorescence, 1 µM PDZ, peptide 2–40 µM, N-acetylated peptide, 50 mM potassium phosphate pH 7.5, 10 °C; for kon / koff: value ± standard error; for koff: displacement of pre-formed complex (1 µM PDZ, 2 µM peptide) with 100 and 150 µM dansylated RRRETQV peptide
Procedure: as §1, §2, §3

[3] = target: Pseudo wild type SAP97 PDZ2 (second PDZ domain of synapse associated protein 97, I342W/C378A) (human) (UniProt Q12959); experiment: stopped-flow spectroscopy
pWT PDZ2 K392M (human) = pWT PDZ2 K392M (human) (UniProt Q12959); experiment: stopped-flow spectroscopy
[4] = target: PDZØ9, engineered variant (L391F/K392M) of pWT SAP97 PDZ2 (human) (UniProt Q12959); experiment: stopped-flow spectroscopy
pWT PDZ2 L391F (human) = pWT PDZ2 L391F (human) (UniProt Q12959); experiment: stopped-flow spectroscopy

Molecule | koff [3] | kon [3] | koff (pWT PDZ2 K392M (human)) | kon (pWT PDZ2 K392M (human)) | koff [4] | kon [4] | koff (pWT PDZ2 L391F (human)) | kon (pWT PDZ2 L391F (human)) | other results
Ac-SARSTDV [SARSTDV] | – | – | – | – | – | – | – | – | Kd [1]: 1600 ± 30 nM; kon [1]: 1.6e+07 ± 200000 M⁻¹ s⁻¹; koff [1]: 26 ± 0.3 s⁻¹; Kd (pWT PDZ2 K392M): 2100 ± 30 nM; kon (pWT PDZ2 K392M): 1.2e+07 ± 100000 M⁻¹ s⁻¹; koff (pWT PDZ2 K392M): 25 ± 0.3 s⁻¹; Kd [2]: 260 ± 5 nM; koff [2]: 3.4 ± 0.06 s⁻¹; kon [2]: 1.3e+07 ± 100000 M⁻¹ s⁻¹; Kd (pWT PDZ2 L391F): 220 ± 3 nM; kon (pWT PDZ2 L391F): 1.8e+07 ± 100000 M⁻¹ s⁻¹; koff (pWT PDZ2 L391F): 4 ± 0.05 s⁻¹
Ac-KRKETLV [KRKETLV] | – | – | – | – | – | – | – | – | Kd [1]: 470 ± 6 nM; kon [1]: 6.4e+06 ± 60000 M⁻¹ s⁻¹; koff [1]: 3 ± 0.03 s⁻¹; Kd (pWT PDZ2 K392M): 470 ± 2 nM; kon (pWT PDZ2 K392M): 7.2e+06 ± 20000 M⁻¹ s⁻¹; koff (pWT PDZ2 K392M): 3.4 ± 0.01 s⁻¹; Kd [2]: 80 ± 1 nM; koff [2]: 0.6 ± 0.005 s⁻¹; kon [2]: 8e+06 ± 60000 M⁻¹ s⁻¹; Kd (pWT PDZ2 L391F): 80 ± 1 nM; kon (pWT PDZ2 L391F): 7.4e+06 ± 60000 M⁻¹ s⁻¹; koff (pWT PDZ2 L391F): 0.6 ± 0.005 s⁻¹
Ac-KRKETLV [KRKETLV peptide (C-terminus of neuroepithelial cell-transforming gene 1 protein, Net1)] | 3 s⁻¹ | 6.4e+06 M⁻¹ s⁻¹ | 3.4 s⁻¹ | 7.2e+06 M⁻¹ s⁻¹ | 0.6 s⁻¹ | 8e+06 M⁻¹ s⁻¹ | 0.6 s⁻¹ | 7.4e+06 M⁻¹ s⁻¹ | Kd [3]: 470 nM; Kd (pWT PDZ2 K392M (human)): 470 nM; Kd [4]: 80 nM; Kd (pWT PDZ2 L391F (human)): 80 nM
Ac-RSISTDV [RSISTDV peptide (C-terminus of protein FAM163B)] | 26 s⁻¹ | 2.1e+07 M⁻¹ s⁻¹ | 31 s⁻¹ | 1.7e+07 M⁻¹ s⁻¹ | 4.3 s⁻¹ | 1.7e+07 M⁻¹ s⁻¹ | 4.3 s⁻¹ | 2.4e+07 M⁻¹ s⁻¹ | –
Ac-NSKETVV [NSKETVV peptide (C-terminus of E3 ubiquitin-protein ligase MARCH3)] | 8.6 s⁻¹ | 1.3e+07 M⁻¹ s⁻¹ | 7.7 s⁻¹ | 9.7e+06 M⁻¹ s⁻¹ | 1.6 s⁻¹ | 1e+07 M⁻¹ s⁻¹ | 1.9 s⁻¹ | 1.3e+07 M⁻¹ s⁻¹ | –
Ac-EKKHTLL [EKKHTLL peptide (C-terminus of E9PN86_HUMAN, partial transcript of EIF3M_HUMAN)] | 112 s⁻¹ | 1.2e+07 M⁻¹ s⁻¹ | 157 s⁻¹ | 1.1e+07 M⁻¹ s⁻¹ | 7.9 s⁻¹ | 1.4e+07 M⁻¹ s⁻¹ | 7.1 s⁻¹ | 1.1e+07 M⁻¹ s⁻¹ | –
SARSTDV [SARSTDV peptide (C-terminus of anoctamin-9)] | 26 s⁻¹ | 1.6e+07 M⁻¹ s⁻¹ | 25 s⁻¹ | 1.2e+07 M⁻¹ s⁻¹ | 3.4 s⁻¹ | 1.3e+07 M⁻¹ s⁻¹ | 4 s⁻¹ | 1.8e+07 M⁻¹ s⁻¹ | –
Ac-VSKETPL [VSKETPL peptide (C-terminus of mitogen-activated protein kinase 12, p38γ)] | 154 s⁻¹ | 4e+07 M⁻¹ s⁻¹ | 150 s⁻¹ | 2.4e+07 M⁻¹ s⁻¹ | 6.3 s⁻¹ | 8.4e+06 M⁻¹ s⁻¹ | 8.8 s⁻¹ | 1.1e+07 M⁻¹ s⁻¹ | –
Ac-TSRETDL [TSRETDL peptide (C-terminus of potassium voltage-gated channel subfamily A member 5, Kv1.5)] | 71 s⁻¹ | 3.3e+07 M⁻¹ s⁻¹ | 62 s⁻¹ | 1.5e+07 M⁻¹ s⁻¹ | 2.6 s⁻¹ | 1.5e+07 M⁻¹ s⁻¹ | 3.8 s⁻¹ | 1.8e+07 M⁻¹ s⁻¹ | –
Ac-YRRESAI [YRRESAI peptide (C-terminus of inward rectifier potassium channel 4, Kir2.3)] | 87 s⁻¹ | 1.9e+07 M⁻¹ s⁻¹ | 105 s⁻¹ | 2.5e+07 M⁻¹ s⁻¹ | 17 s⁻¹ | 2.2e+07 M⁻¹ s⁻¹ | 15 s⁻¹ | 1.9e+07 M⁻¹ s⁻¹ | –

Reference: article PMC5046105, “Improved affinity at the cost of decreased specificity: a recurring theme in PDZ-peptide interactions” (Scientific Reports, 2016)
